Measured values: publication PMC10121561, “Control of a hippocampal recurrent excitatory circuit by cannabinoid receptor-interacting protein Gap43” (Nature Communications, 2023)

Assays:
[1] = target: CB1R (type-1 cannabinoid receptor) (UniProt P21554); assay: BRET saturation, CB1R-RLuc and GFP-GAP43; details: reference: GFP-GAP43 wild type; sites S41
RLuc-tagged CB1R = target: T1, RLuc-tagged CB1R (UniProt P21554 1-472); assay: FRET or BRET; BRET saturation in live HEK293T cells expressing CB1R-RLuc and increasing amounts of GFP-GAP43 forms; 3 independent experiments; details: partners not purified
T1 construct: type-1 cannabinoid receptor (CB1R); also called CB1R-RLuc; source: HEK293T, transfected, in live cells

[2] = target: T2, hGAP43 (purified, unlabeled human growth-associated protein of 43 kDa) (human, UniProt P17677 1-238); assay: fluorescence polarisation; fixed concentration of 5-IAF-labeled hCB1R-CTD, increasing concentrations of unlabeled hGAP43; 3 independent experiments; details: both partners purified
T2 construct: growth-associated protein of 43 kDa (GAP43, neuromodulin), human; also called unlabeled GAP43; neuromodulin; source: purified (details in Supplementary Methods)
T2 sequence (looked up): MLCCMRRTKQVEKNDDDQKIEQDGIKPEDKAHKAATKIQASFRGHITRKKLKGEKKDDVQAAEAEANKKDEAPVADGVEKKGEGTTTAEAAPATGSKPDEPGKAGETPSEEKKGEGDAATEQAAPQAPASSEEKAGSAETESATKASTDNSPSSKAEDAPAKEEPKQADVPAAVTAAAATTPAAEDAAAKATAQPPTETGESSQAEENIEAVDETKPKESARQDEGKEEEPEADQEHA

Molecule	BRET50 (RLuc/GFP ratio that gives half-maximal BRET effect) (RLuc-tagged CB1R)	further results
GAP43 (growth-associated protein of 43 kDa; neuromodulin) (from UniProt P17677) GFP-GAP43 S41D	–	other: BRET50 (RLuc/GFP ratio giving half-maximal BRET) [1]: stronger; reference 15.18 ± 4.53
GFP-GAP43(WT) (natural protein, UniProt P17677 1-238, looked up, growth-associated protein of 43 kDa (GAP43), wild type; In the co-IP and DMR experiments the text writes GAP43(WT) without GFP; source: HEK293T, transfected, in cells or lysate) MLCCMRRTKQVEKNDDDQKIEQDGIKPEDKAHKAATKIQASFRGHITRKKLKGEKKDDVQAAEAEANKKDEAPVADGVEKKGEGTTTAEAAPATGSKPDEPGKAGETPSEEKKGEGDAATEQAAPQAPASSEEKAGSAETESATKASTDNSPSSKAEDAPAKEEPKQADVPAAVTAAAATTPAAEDAAAKATAQPPTETGESSQAEENIEAVDETKPKESARQDEGKEEEPEADQEHA	15.2	–
GFP-GAP43(S41D) (natural protein, UniProt P17677 1-238, looked up, growth-associated protein of 43 kDa (GAP43) with the phospho-mimetic point mutation S41D; In the co-IP and DMR experiments the text writes GAP43(S41D) without GFP; also called phospho-mimetic GAP43; source: HEK293T, transfected, in cells or lysate) MLCCMRRTKQVEKNDDDQKIEQDGIKPEDKAHKAATKIQADFRGHITRKKLKGEKKDDVQAAEAEANKKDEAPVADGVEKKGEGTTTAEAAPATGSKPDEPGKAGETPSEEKKGEGDAATEQAAPQAPASSEEKAGSAETESATKASTDNSPSSKAEDAPAKEEPKQADVPAAVTAAAATTPAAEDAAAKATAQPPTETGESSQAEENIEAVDETKPKESARQDEGKEEEPEADQEHA	7.08	–
5-(iodoacetamido)fluorescein-labeled hCB1R-CTD (domain or fragment, human, UniProt P21554 408-472, looked up, also: 5-(iodoacetamido)fluorescein label, position not given here, type-1 cannabinoid receptor (CB1R), human, C-terminal intracellular domain, amino acids 408-472; protein expression and purification are in the Supplementary Methods; also called 5-IAF-labeled CB1R-CTD; source: purified (recombinant; details in Supplementary Methods)) FRSMFPSCEGTAQPLDNSMGDSDCLHKHANNAASVHRAAESCIKSTVKIAKVTMSVSTDTSAEAL	–	Kd [2]: 38.2 µM
